Publication PMC5856089

How the values were obtained:
[1] = target: T1, C-luc Apaf-1 (full length Apaf-1 fused through its N-terminus to the C-terminal fragment, amino acids 395-550, of P. pyralis luciferase, with C-terminal His-tag), O14727; test: split reporter (BiFC, NanoBiT); cell-based split luciferase: HEK293 co-transfected with N-luc Apaf-1 and C-luc Apaf-1 (N/P 12), apoptosis induced with 0.5 μM doxorubicin, lysates (CCLR) prepared 12, 24, 28 and 36 h after induction; luciferase activity against uninduced cells; settings: remark: other sources report otherwise
T1 chain: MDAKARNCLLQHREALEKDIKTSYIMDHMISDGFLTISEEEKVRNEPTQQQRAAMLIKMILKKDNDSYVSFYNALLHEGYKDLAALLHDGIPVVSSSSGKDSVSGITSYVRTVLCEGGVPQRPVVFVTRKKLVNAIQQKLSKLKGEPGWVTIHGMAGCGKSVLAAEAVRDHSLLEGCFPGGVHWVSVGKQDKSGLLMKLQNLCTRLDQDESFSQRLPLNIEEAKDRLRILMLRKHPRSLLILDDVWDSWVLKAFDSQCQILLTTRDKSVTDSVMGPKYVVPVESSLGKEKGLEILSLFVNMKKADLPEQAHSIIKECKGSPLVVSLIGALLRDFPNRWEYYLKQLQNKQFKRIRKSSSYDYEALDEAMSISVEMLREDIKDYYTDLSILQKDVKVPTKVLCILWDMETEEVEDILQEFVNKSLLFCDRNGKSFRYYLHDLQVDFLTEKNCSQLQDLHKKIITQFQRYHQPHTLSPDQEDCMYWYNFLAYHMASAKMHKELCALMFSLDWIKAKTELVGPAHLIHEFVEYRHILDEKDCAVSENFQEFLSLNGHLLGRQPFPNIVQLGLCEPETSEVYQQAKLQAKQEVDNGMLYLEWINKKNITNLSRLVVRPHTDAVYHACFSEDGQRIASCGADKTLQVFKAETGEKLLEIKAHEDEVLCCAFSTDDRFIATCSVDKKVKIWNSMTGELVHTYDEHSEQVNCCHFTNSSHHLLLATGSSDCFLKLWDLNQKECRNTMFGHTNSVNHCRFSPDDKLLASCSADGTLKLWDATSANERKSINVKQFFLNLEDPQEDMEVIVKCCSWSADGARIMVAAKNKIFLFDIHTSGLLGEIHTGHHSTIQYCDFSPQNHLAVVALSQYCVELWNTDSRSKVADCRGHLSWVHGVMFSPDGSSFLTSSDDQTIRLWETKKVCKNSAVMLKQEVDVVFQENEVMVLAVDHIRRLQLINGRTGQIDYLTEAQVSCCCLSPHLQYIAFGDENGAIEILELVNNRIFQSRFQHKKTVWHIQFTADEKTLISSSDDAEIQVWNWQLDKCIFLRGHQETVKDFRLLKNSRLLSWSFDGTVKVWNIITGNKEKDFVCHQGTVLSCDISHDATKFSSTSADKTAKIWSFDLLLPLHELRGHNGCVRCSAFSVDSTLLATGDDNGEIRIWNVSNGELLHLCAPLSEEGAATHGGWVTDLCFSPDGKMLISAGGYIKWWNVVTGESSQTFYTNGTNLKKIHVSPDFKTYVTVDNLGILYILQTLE

[2] = target: T1, C-luc Apaf-1 (full length Apaf-1 fused …); test: split reporter (BiFC, NanoBiT); cell-free split luciferase: extracts of N-luc Apaf-1 and C-luc Apaf-1 expressing cells mixed, cytochrome c (1.6 μM) and dATP (1.0 mM) added, room temperature; against the mixture without cytochrome c and dATP; settings: remark: other sources report otherwise

fold change in luciferase activity against uninduced cells, 12 h after apoptosis induction [1]: 10 fold | fold change in luciferase activity against uninduced cells, 24 h after apoptosis induction [1]: 130 fold | fold change in luciferase activity against uninduced cells, 28 h after apoptosis induction [1]: 280 fold | fold change in luciferase activity against uninduced cells, 36 h after apoptosis induction [1]: 40 fold | fold increase in reconstituted luciferase activity with dATP/cytochrome c against the mixture without them [2]: 5 fold
B1: N-luc Apaf-1 (full length Apaf-1 fused through its N-terminus to the N-terminal fragment, amino acids 1-416, of P. pyralis luciferase), O14727 1-1248 (natural protein)
chain: MDAKARNCLLQHREALEKDIKTSYIMDHMISDGFLTISEEEKVRNEPTQQQRAAMLIKMILKKDNDSYVSFYNALLHEGYKDLAALLHDGIPVVSSSSGKDSVSGITSYVRTVLCEGGVPQRPVVFVTRKKLVNAIQQKLSKLKGEPGWVTIHGMAGCGKSVLAAEAVRDHSLLEGCFPGGVHWVSVGKQDKSGLLMKLQNLCTRLDQDESFSQRLPLNIEEAKDRLRILMLRKHPRSLLILDDVWDSWVLKAFDSQCQILLTTRDKSVTDSVMGPKYVVPVESSLGKEKGLEILSLFVNMKKADLPEQAHSIIKECKGSPLVVSLIGALLRDFPNRWEYYLKQLQNKQFKRIRKSSSYDYEALDEAMSISVEMLREDIKDYYTDLSILQKDVKVPTKVLCILWDMETEEVEDILQEFVNKSLLFCDRNGKSFRYYLHDLQVDFLTEKNCSQLQDLHKKIITQFQRYHQPHTLSPDQEDCMYWYNFLAYHMASAKMHKELCALMFSLDWIKAKTELVGPAHLIHEFVEYRHILDEKDCAVSENFQEFLSLNGHLLGRQPFPNIVQLGLCEPETSEVYQQAKLQAKQEVDNGMLYLEWINKKNITNLSRLVVRPHTDAVYHACFSEDGQRIASCGADKTLQVFKAETGEKLLEIKAHEDEVLCCAFSTDDRFIATCSVDKKVKIWNSMTGELVHTYDEHSEQVNCCHFTNSSHHLLLATGSSDCFLKLWDLNQKECRNTMFGHTNSVNHCRFSPDDKLLASCSADGTLKLWDATSANERKSINVKQFFLNLEDPQEDMEVIVKCCSWSADGARIMVAAKNKIFLFDIHTSGLLGEIHTGHHSTIQYCDFSPQNHLAVVALSQYCVELWNTDSRSKVADCRGHLSWVHGVMFSPDGSSFLTSSDDQTIRLWETKKVCKNSAVMLKQEVDVVFQENEVMVLAVDHIRRLQLINGRTGQIDYLTEAQVSCCCLSPHLQYIAFGDENGAIEILELVNNRIFQSRFQHKKTVWHIQFTADEKTLISSSDDAEIQVWNWQLDKCIFLRGHQETVKDFRLLKNSRLLSWSFDGTVKVWNIITGNKEKDFVCHQGTVLSCDISHDATKFSSTSADKTAKIWSFDLLLPLHELRGHNGCVRCSAFSVDSTLLATGDDNGEIRIWNVSNGELLHLCAPLSEEGAATHGGWVTDLCFSPDGKMLISAGGYIKWWNVVTGESSQTFYTNGTNLKKIHVSPDFKTYVTVDNLGILYILQTLE
